# Assay results taken from the RNAGym collection of RNA variant scans (doi:10.1073/pnas.2313332121).
# B1: TPR t1 (parent)
# chain: GACCAAUCUGCCCUCAGAGCUCGAGAACAUCUUCGGAUGCAGAGGAGGCAGGCUUCGGUGGCGCGAUAGCGCCAACGUCCUCAACCUCCAAUGCAUCCCACCACAUGAUGAUGCCUGAAGAGCCUUGGUUUUUUG
# Variants of: B1
# Experiment: polymerase ribozyme fitness, log enrichment relative to wild type (log ratio); higher = more active; in vitro selection for triplet polymerase activity
# Summary of the method: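 Genotype fitness is the logarithm of its enrichment divided by wild-type enrichment, using inverse-variance-weighted averages of replicates. That logarithm is base 2. Enrichment was measured by Illumina sequencing of input and output libraries from one triplicate in vitro selection round, with frozen incubation at −7 °C, on PCR-built, transcribed mutant libraries of each subunit of a heterodimeric triplet polymerase ribozyme, retaining genotypes with ≥10 input reads and ≥1 read per output.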
row,Variant,polymerase ribozyme fitness (log ratio)
1,C62A C73G G117C U129G,-6.43
2,C13A C62A G120U,-1.17
3,G39C U54A A74G,-0.531
4,C8A G36U G42A C62U,-2.62
5,C4G G45A,-2.31
6,C70U C82A G113A,-1.84
7,C72U C94G A103G G113U U126A,-5.45
8,C13A G60U A91U G120A,-2.31
9,A2U C13G C62U,-2.85
10,A50C C94U,-0.435
11,G57U U78G C114U A118U,-3.81
12,C62U A95G U96C,-1.53
13,C40G G60U,-0.737
14,C12A G19C G58A C82G,-3.7
15,G52U A83C C101G C115U,-4.77
16,C56U G117A,-1.46
17,G36A G57A G60U U131G,-0.901
18,C28U C73U U81A U106C,-3.5
19,A41U G42C A95C,-4.1
20,C40G C101U,-1.22
21,C31G A50G G60A C79A C124A,-7.23
22,C3A C72A A111C,-1.3
23,C8A C82G,-0.777
24,C20A A50U U126C,-4.92

row,Variant,polymerase ribozyme fitness (log ratio)
1,C3A G39A G113A C124U,-3.14
2,G44U G127C,-2.57
3,U14G A50U C56U G93U U112A,-3.22
4,U32C G113A U126G U133C,-4.07
5,U116G U125A U133A,-4.19
6,C62G G113C,-4.48
7,C102A G113C U126C,-4.92
8,A74U G110C,-4.41
9,G42C G52A G60U C101U C104A,-5.59
10,C34U U59A,-5.75
11,A5U U14C A50U C72A C124A U131G,-1.27
12,U59A C70U U125A U133A,-1.97
13,A16U C28U C76G C82U U116A,-3.83
14,C11A G52A C70U A90G,-2.22
15,G61A C88G G120A A121C G135U,-0.364
16,C11U G17U G48A C124G,-1.88
17,C56U C101G,-2.07
18,A26C G61A,-3.85
19,C49U C72U C89G,-1.87
20,U21A C104U,-0.273
21,C22U G42U G58A C70U,-5.05
22,C11G G42U U59A G60U,-1.24
23,G61C G107A,-6.66
24,A100G,-2.32

row,Variant,polymerase ribozyme fitness (log ratio)
1,C22G C40G G45A G47C C72G U112G U132A,-4.49
2,U30G C102G U112G,-7.15
3,C3U C79G C97G A121G,-5.3
4,G58A A84U U133A,-0.154
5,G47A C76G A90G,-0.228
6,A2U C3G C123G,-0.606
7,C20U G44U A50G A74G,-3.66
8,C88G C104A U112G,-4.26
9,G17C C49G C62A,-7.71
10,G10A G42A G44A C72U,-1.94
11,G60C U130A,0.137
12,A27C C53G,-2.64
13,C3A C4A G51A G60A A84G G120U,-3.02
14,C13A C20A,-3.84
15,G44U G45C U78C,-3.51
16,A5G A18G G44C G48C U55C U59G G69U G117U,-5.43
17,C34A G57C,-2.62
18,U32C G69C G128C,-4.73
19,C15A A46C A84C A91U,-4.15
20,U14G G36C,-3.92
21,U21A C94G,-1.64
22,A50G U55C C88U G107C U112G C123G,-5.21
23,A50U C80A G122A G127C U129C,-5.15
24,C62U G71C U131G,-0.416

row,Variant,polymerase ribozyme fitness (log ratio)
1,G60C A83C C115U,-1.05
2,C20U A41G G60C,-2.04
3,U87A A105U U116C,-3.54
4,C20U C22G A50C C97U U106A A121C,-4.3
5,G36C C53G C56A A95U,-2.45
6,G48A C70U C115A,-1.87
7,G113U A118U,-2.55
8,U38C A50U,-0.941
9,A2U G63U,-4.25
10,C12U A27C,-2.1
11,G71A U92A A95U,-4.72
12,G52A A74G U78G C80A,-3.14
13,A50G C85A,-2.34
14,G69U G93C A95U A103U C114U,-3.98
15,C101U C114G,-3.89
16,A18G C80U,-3.36
17,C12U G61U C88A,-0.482
18,G47A G71C,-1.56
19,G10U U38G A41G,-1.27
20,C13G C101A,-2.61
21,U96G U106C,-1.3
22,C4G G44C C62U,-2.44
23,G69C U78C U106A,-2.46
24,C12A C53A G61U U109G G117C U125A U126C,-7.8

row,Variant,polymerase ribozyme fitness (log ratio)
1,G69A C88A C123G C124A G135U,-3.37
2,G45C G51U G57U C99A G117C,-7.29
3,C8U C20U A37U A43U,-2.77
4,C22G G51A C72G,-4.82
5,C8A C28A C56U C82U U106A C115A,-2.02
6,G65A G120C U129A U132C,-6.78
7,G17A G110A,-4.08
8,A16G G93A G120A G122U U130G,-3.58
9,G44U G58C C62A,-2.17
10,C40U G52C G117C,-6.09
11,G61A G107A,-3.6
12,G51U G57A C76A G110U G122U,-5.8
13,G10U G17C G45U G93U C123G,-4.78
14,A16U G63C G120U U125C,-0.937
15,C49A G52C U96C,-0.622
16,G51U G77C A91C C94A,-5.09
17,C4U C85U,-1.63
18,C13A C62G,-2.67
19,C11U C70U C102U,-3.34
20,C11A U81A,-2.74
21,A2G C20A G63C C114A,-3.77
22,C34U C53U G61U G120A U132A,-3.26
23,A41U G45A U55C G71A,-3
24,G110A U130C,-0.539

row,Variant,polymerase ribozyme fitness (log ratio)
1,G42A G60U G69U,-6.05
2,C12U G48A U54G A121U U129G,0.00313
3,C22G G42U,-4.63
4,G35C G93A,-4.92
5,C11U A29U C53U C72A C123A,-0.568
6,G61U U129C,-0.253
7,A41G A83U,-0.499
8,U106G U112G,-1.25
9,U14A U116A A121G,0.0546
10,G17U G44U C72G C85U U96A A121G C124G,-3.95
11,A26G C72A C86G A111U G122U,-3.76
12,A46U C62G C88A C124A,-4.36
13,G58A U96C,-0.271
14,C3U C115U,-1.53
15,A26U A66G U112G,-5.69
16,G51A U81C C97U C115G,-5.02
17,C28U U38A C79U C104A C124A U133G,-4.38
18,G44C C73U,-0.621
19,C12U G47A,-0.468
20,G47U G110U,-3.1
21,C12A G71U A91C,-1.77
22,G47A C73U G117U G135U,-5.34
23,G69U U81C,0.131
24,A50G C72G C79A U132C,-1.72

row,Variant,polymerase ribozyme fitness (log ratio)
1,C11U G63U U78C C101A,-4.53
2,A5U C12U G71U C114A G128A,-4.71
3,C102A A118G,-2.42
4,G77U C88G,-1.02
5,A6U C28U C123U,-0.417
6,C12G G35A A74U,-4.41
7,G10U C62A,-1.53
8,A6U C22U C64U C124U,-4.12
9,U78C U125A,-0.432
10,G51C C79A G117A U133G,-5.7
11,G69C A83U C99A C102A,-6.91
12,G60C A121U U125G U129G,-0.914
13,G60C U129C,-0.277
14,U9A C12G U87G C99U,-2.31
15,G63A U78C A95G,-0.717
16,A46C C70U C101U,-1.31
17,C28G C73U A119G,-1.62
18,C22A C72A U106A A118G,-3.71
19,C12G A46G G63C C115G,-4.6
20,U7C A16U C34A C49G,-4.01
21,A29G C101A,-3.99
22,G61A A83G G113A U130G,-1.85
23,C8G G63A A83G C85A G122A,-1.28
